{"source": "paper PMC3230118", "biological_target": "Ub-NpuN fusion protein bearing the wild-type N-intein sequence (NpuNWT), C1A (not stated | Nostoc punctiforme) (UniProt P0CG48)", "experiment": "other fluorescence titration"}
{"substance": "NpuC-SUMO fusion protein bearing the wild-type C-intein sequence (NpuCWT) (domain or fragment)", "values": [{"measurement": "Kd", "value": 2.9, "unit": "nM"}]}
